Publication PMC8726686

Columns and labels:
[1] = target: Fc gamma receptor Type IIIa, FcγRIIIa (F176) (human) (UniProt P08637); experiment: BLI
[2] = target: JS016-WT (wild-type control antibody); experiment: BLI

UniProt P08637, sequence (P08637 17-254): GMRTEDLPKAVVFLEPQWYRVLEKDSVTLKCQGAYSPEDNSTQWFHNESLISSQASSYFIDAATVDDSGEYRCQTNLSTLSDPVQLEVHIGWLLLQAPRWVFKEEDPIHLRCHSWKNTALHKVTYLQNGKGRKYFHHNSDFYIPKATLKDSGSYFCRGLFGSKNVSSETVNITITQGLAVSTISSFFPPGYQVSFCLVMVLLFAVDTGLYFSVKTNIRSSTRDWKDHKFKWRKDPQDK

JS016-WT (wild-type control antibody)
Kd [1]: 2000 nM

C1q (first subcomponent of the C1 complex)
Kd [2]: 2.12 nM
